We go through 2 molecules from patent US20250302962A1, “BIOCONJUGATE COMPRISING A PHOTOSENSITIZER UNIT, METHOD FOR ITS PREPARATION AND USE THEREOF” (UNIVERSITE DE BORDEAUX, priority 2021, published 2025).

Holding throughout (format): physicochemical
A short description of data set [1]: Singlet oxygen quantum yield of the phthalocyanine. The settings on record: measured in dimethylsulfoxide. An excerpt:
It has particularly outstanding photo-physical properties. […] Singlet oxygen quantum yield of this phthalocyanine, measured in dimethylsulfoxide, mounts up to ϕΔ=0.72. The presence of the tert-butyl groups not only minimizes the formation of molecular aggregates, but also increases the solubility of the compound in organic solvents.

Data set [2] in a line: Turbidity assay, onset transition temperature (Tt) of ELP and TT1 bioconjugates in PBS. The settings on record: for Tt in PBS: PBS pH 7.4, onset transition temperature. Here is the method:
UV-Vis spectroscopy: The transition temperatures (Tt) are determined by following the turbidity at 600 or 500 nm absorption versus temperature on Agilent Cary 100 UV-Vis spectrophotometer equipped with a multicell thermo-electric temperature controller. Turbidity is measured over a temperature range from 10 to 60° C. at 1° C. min^−1 of a scan rate before and after the conjugation reaction at three concentrations of phthalocyanine (10, 20 and 30 μM) in phosphate buffer (PBS, pH 7.4).
The thermo-responsive character of ELP, before and after TT1 conjugation, is measured by turbidity assays in phosphate buffer (PBS, pH 7.4) following the absorbance at 600 and 500 nm, respectively, over a temperature range from 10 to 60° C.
The same analysis is carried out for TT1-ELP(O) (obtained by chemical oxidation of methionyl groups) and TT1-ELP^PhOx (obtained by oxidation triggered by photo-irradiation of methionyl groups).

The nature of data set [3]: Dynamic light scattering size distribution of TT1-ELP and TT1-ELP^PhOx. As to the method:
Dynamic light scattering: The DLS measurements of TT1-ELP (at 20° C. and 37° C.) and TT1-ELP^PhOx (at 37° C.) are performed on a Nano ZS 90 instrument (HeNe laser 632.8 nm, Malvern) at a 90° angle at a constant position in the cuvette (constant scattering volume at 30 μM concentration in 1×PBS, pH 7.4). The values of Z-average hydrodynamic diameter (DH) and polydispersity index (PDI) are obtained from the 2nd order cumulant fit using a CONTIN-like algorithm.
In order to mimic the self-assembly and photooxidation-triggered disassembly profile of TT1-ELP, dynamic light scattering (DLS) measurements are performed in physiological conditions (PBS pH 7.4 at 37° C.) on TT1-ELP and TT1-ELP^PhOx.
Due to the stacking tendency of TT1 upon direct dissolution of TT1-ELP in PBS at ambient temperature, 60 nm micelles with narrow size distribution (PDI 0.2) are observed in DLS measurement conducted at 165° angle via 657 nm laser (FIG. 5-A)).

The mark [4] stands for this setting: direct dissolution in PBS, ambient temperature, 165° angle, 657 nm laser.

“9(10),16(17),23(24)-Tri-tert-butyl-2-carboxy-5,28:14,19-diimino-7,12:21,26-dinitrilotetrabenzo[c,h,m,r][1,6,11,16]tetraazacycloeicosinato-(2)-N^29,N^30,N^31,N^32zinc(II) [TT1]”: in data set [1], the “Singlet oxygen quantum yield ϕΔ” value is recorded as 0.72.

B1: TT1-ELP: phthalocyanine TT1 coupled by CuAAC triazole linker to the N-terminus of ELP (SEQ ID No: 11) (conjugate)
chain: MWVPGVGVPGMGVPGVGVPGVGVPGVGVPGMGVPGVGVPGVGVPGVGVPGMGVPGVGVPGVGVPGVGVPGMGVPGVGVPGVGVPGVGVPGMGVPGVGVPGVGVPGVGVPGMGVPGVGVPGVGVPGVGVPGMGVPGVGVPGVGVPGVGVPGMGVPGVGVPGVGVPGVGVPGMGVPGVGVPGVGVPGVGVPGMGVPGVGVPGVG
modifications: N-terminal phthalocyanine TT1 via triazole; Elastin-like polypeptide
On to B1, for which the “Tt in PBS” value in data set [2] (10 μM) came to 29 °C. Further, the “Tt in PBS” value in data set [2] (20 μM) turned out to be 28 °C. Further, the solubility result in data set [2] (10, 20 and 30 μM in PBS pH 7.4 at 10° C.) is on record as “fully soluble”. Also, the “drop of Tt after conjugation of TT1” value in data set [2] (versus ELP, PBS pH 7.4) is “approximately 10 °C”. Further, in data set [3] (above Tt, 37° C., PBS pH 7.4), the “particle size (hydrodynamic diameter)” value was 1.5 μm. In data set [3] (setting [4]), this molecule showed a PDI of 0.2 and a micelle size of 60 nm. In data set [3] (temperature dropped back to 20° C., PBS pH 7.4), the “aggregation state by DLS” value was “disassembly of these aggregates”.
